# Data taken from publication PMC7515719, “The crystal structure of human XPG, the xeroderma pigmentosum group G endonuclease, provides insight into nucleotide excision DNA repair”.
# T1: XPGn1 D812A (Homo sapiens, UniProt P28715 1-112+=GT+750-990, D812A;internal_change)
# T1 sequence: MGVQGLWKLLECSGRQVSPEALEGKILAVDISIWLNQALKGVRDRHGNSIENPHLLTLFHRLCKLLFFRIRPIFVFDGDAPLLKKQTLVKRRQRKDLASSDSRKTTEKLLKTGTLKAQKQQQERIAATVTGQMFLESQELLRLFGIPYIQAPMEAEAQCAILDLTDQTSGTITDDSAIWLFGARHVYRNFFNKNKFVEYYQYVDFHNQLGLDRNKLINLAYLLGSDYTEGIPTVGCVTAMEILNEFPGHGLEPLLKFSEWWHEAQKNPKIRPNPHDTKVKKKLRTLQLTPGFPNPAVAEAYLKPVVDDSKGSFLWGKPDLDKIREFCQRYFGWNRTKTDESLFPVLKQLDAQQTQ
# T2: XPGn3 D812A (Homo sapiens, UniProt P28715 2-112+=GT+750-990, D812A;internal_change)
# T2 sequence: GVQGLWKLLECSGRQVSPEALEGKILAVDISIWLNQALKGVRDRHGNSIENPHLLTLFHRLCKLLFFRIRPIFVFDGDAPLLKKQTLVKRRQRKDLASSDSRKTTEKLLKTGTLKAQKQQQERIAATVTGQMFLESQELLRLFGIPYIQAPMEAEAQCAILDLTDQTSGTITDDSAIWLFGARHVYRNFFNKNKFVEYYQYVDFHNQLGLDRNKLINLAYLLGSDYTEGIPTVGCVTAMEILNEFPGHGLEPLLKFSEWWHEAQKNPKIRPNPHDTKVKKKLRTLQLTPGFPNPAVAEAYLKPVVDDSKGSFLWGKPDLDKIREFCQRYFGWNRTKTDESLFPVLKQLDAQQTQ
# T3: XPGn3 K916A (Homo sapiens, UniProt P28715 2-112+=GT+750-990, K916A;internal_change)
# T3 sequence: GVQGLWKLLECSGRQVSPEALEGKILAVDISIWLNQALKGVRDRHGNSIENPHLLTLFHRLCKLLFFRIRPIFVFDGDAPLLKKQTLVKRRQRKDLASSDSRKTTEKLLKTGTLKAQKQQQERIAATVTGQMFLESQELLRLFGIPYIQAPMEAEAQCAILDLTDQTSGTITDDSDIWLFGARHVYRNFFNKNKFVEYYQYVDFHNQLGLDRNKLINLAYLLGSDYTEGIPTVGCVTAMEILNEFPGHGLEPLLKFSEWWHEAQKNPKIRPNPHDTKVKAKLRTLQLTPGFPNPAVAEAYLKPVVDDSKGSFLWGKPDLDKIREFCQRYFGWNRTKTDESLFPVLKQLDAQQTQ
# T4: XPGn3 K913A (Homo sapiens, UniProt P28715 2-112+=GT+750-990, K913A;internal_change)
# T4 sequence: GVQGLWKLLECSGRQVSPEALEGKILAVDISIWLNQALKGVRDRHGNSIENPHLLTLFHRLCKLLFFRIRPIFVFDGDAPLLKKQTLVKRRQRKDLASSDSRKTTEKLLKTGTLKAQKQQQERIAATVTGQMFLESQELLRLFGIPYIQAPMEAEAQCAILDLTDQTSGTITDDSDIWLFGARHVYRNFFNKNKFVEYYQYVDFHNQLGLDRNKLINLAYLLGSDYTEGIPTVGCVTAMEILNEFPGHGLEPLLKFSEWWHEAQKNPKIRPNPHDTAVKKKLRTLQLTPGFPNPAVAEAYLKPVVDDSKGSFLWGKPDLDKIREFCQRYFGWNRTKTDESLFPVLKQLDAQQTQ
# T5: XPGn3 K917E (Homo sapiens, UniProt P28715 2-112+=GT+750-990, K917E;internal_change)
# T5 sequence: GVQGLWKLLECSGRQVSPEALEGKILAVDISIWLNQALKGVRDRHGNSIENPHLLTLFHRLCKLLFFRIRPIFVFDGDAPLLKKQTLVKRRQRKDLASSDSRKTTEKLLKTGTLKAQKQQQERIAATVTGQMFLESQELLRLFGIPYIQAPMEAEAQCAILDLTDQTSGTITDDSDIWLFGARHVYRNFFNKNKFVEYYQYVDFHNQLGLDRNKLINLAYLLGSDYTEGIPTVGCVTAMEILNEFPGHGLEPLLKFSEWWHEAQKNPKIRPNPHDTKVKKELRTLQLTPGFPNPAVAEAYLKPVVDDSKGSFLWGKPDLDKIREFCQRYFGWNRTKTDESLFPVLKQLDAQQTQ
# T6: XPGn3 K828E (Homo sapiens, UniProt P28715 2-112+=GT+750-990, K828E;internal_change)
# T6 sequence: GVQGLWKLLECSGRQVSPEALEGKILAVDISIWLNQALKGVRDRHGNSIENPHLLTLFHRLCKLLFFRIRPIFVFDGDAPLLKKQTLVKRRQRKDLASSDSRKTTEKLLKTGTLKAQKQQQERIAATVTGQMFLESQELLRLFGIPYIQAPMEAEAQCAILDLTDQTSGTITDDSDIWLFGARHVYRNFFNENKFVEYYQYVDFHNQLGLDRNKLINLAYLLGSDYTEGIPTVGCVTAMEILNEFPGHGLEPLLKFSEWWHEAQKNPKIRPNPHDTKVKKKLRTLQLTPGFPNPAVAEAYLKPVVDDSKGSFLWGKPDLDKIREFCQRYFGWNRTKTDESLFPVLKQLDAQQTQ
# T7: XPGn3 K972E (Homo sapiens, UniProt P28715 2-112+=GT+750-990, K972E;internal_change)
# T7 sequence: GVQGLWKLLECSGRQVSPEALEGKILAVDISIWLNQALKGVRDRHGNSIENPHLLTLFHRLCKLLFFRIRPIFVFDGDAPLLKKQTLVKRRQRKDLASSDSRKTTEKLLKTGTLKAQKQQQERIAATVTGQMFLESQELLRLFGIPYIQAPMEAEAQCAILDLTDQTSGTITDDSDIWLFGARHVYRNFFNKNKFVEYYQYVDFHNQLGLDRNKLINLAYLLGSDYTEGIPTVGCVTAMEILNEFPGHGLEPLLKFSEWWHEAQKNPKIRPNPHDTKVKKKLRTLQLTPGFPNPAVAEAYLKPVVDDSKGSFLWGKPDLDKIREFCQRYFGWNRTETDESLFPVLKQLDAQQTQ
# T8: XPGn3 R823A (Homo sapiens, UniProt P28715 2-112+=GT+750-990, R823A;internal_change)
# T8 sequence: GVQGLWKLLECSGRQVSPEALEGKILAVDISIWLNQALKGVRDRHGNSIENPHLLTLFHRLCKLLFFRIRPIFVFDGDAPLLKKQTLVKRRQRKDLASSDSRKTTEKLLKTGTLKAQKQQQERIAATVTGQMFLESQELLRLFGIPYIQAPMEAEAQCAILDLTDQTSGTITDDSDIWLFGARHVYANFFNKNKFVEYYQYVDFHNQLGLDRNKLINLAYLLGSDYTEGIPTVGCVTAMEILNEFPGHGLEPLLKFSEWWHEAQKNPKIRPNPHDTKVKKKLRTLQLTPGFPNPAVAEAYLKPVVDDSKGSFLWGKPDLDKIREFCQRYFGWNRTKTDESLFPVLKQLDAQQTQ
# B1: DNA-1 splayed-arm (dsDNA)
# DNA 1: TTGCAGAGTTC
# DNA 2: GAACTCTGCAG
# B2: DNA-2 splayed-arm (dsDNA)
# DNA 1: TACTTGCAGAGTTCGC
# DNA 2: GCGAACTCTGCAGAGCA
# How the values were obtained:
# XPGn1 D812A = target: T1, XPGn1 D812A; assay: crystal structure; C1, space group I422, one complex per ASU; EMSA: 2.5 uM DNA, 1-8 uM protein, buffer H (composition not in material) + 15% glycerol, 25 C, 30 min, 7% native PAGE; crystals: complex in 20 mM Tris pH 7.5, 100 mM KCl, grown in 5% PEG 3350, 50 mM sodium citrate pH 4.0, 22 C; details: protein: recombinant; tags: N-terminal His-3C cleaved, leaves Gly-Pro-His before Met1; fork: 10 bp duplex, 1 nt 5' arm (strand 1), 1 nt 3' arm (strand 2)
# XPGn3 D812A = target: T2, XPGn3 D812A; assay: EMSA; no influence on binding; EMSA: 2.5 uM DNA, 1-8 uM protein, buffer H (composition not in material) + 15% glycerol, 25 C, 30 min, 7% native PAGE; crystals: complex in 20 mM Tris pH 7.5, 100 mM KCl, grown in 5% PEG 3350, 50 mM sodium citrate pH 4.0, 22 C; details: protein: recombinant; tags: N-terminal His-TEV cleaved; fork: 12 bp duplex, 4 nt 5' arm (strand 1), 5 nt 3' arm (strand 2)
# XPGn3 K916A = target: T3, XPGn3 K916A; assay: EMSA; minimal or null effect; EMSA: 2.5 uM DNA, 1-8 uM protein, buffer H (composition not in material) + 15% glycerol, 25 C, 30 min, 7% native PAGE; crystals: complex in 20 mM Tris pH 7.5, 100 mM KCl, grown in 5% PEG 3350, 50 mM sodium citrate pH 4.0, 22 C; details: protein: recombinant; tags: N-terminal His-TEV cleaved; fork: 12 bp duplex, 4 nt 5' arm (strand 1), 5 nt 3' arm (strand 2)
# XPGn3 K913A = target: T4, XPGn3 K913A; assay: as above; details: protein: recombinant; tags: N-terminal His-TEV cleaved; fork: 12 bp duplex, 4 nt 5' arm (strand 1), 5 nt 3' arm (strand 2)
# XPGn3 K917E = target: T5, XPGn3 K917E; assay: as above; details: protein: recombinant; tags: N-terminal His-TEV cleaved; fork: 12 bp duplex, 4 nt 5' arm (strand 1), 5 nt 3' arm (strand 2)
# XPGn3 K828E = target: T6, XPGn3 K828E; assay: EMSA; only cleavage mildly lowered; EMSA: 2.5 uM DNA, 1-8 uM protein, buffer H (composition not in material) + 15% glycerol, 25 C, 30 min, 7% native PAGE; crystals: complex in 20 mM Tris pH 7.5, 100 mM KCl, grown in 5% PEG 3350, 50 mM sodium citrate pH 4.0, 22 C; details: protein: recombinant; tags: N-terminal His-TEV cleaved; fork: 12 bp duplex, 4 nt 5' arm (strand 1), 5 nt 3' arm (strand 2)
# XPGn3 K972E = target: T7, XPGn3 K972E; assay: as above; details: protein: recombinant; tags: N-terminal His-TEV cleaved; fork: 12 bp duplex, 4 nt 5' arm (strand 1), 5 nt 3' arm (strand 2)
# XPGn3 R823A = target: T8, XPGn3 R823A; assay: EMSA; value from '~10% reduction'; EMSA: 2.5 uM DNA, 1-8 uM protein, buffer H (composition not in material) + 15% glycerol, 25 C, 30 min, 7% native PAGE; crystals: complex in 20 mM Tris pH 7.5, 100 mM KCl, grown in 5% PEG 3350, 50 mM sodium citrate pH 4.0, 22 C; details: protein: recombinant; tags: N-terminal His-TEV cleaved; fork: 12 bp duplex, 4 nt 5' arm (strand 1), 5 nt 3' arm (strand 2)
binder,measurement,setting,value
B1,binding result,XPGn1 D812A,binds
B2,binding result,XPGn3 D812A,binds
same,binding result,XPGn3 K916A,binds
same,binding result,XPGn3 K913A,binds
same,binding result,XPGn3 K917E,binds
same,binding result,XPGn3 K828E,binds
same,binding result,XPGn3 K972E,binds
same,binding signal,XPGn3 R823A,~90 % of wild-type binding
